The results in this text go back to publication doi:10.1101/2020.10.19.344200.

For this test, the target named is S. scrofa RNA polymerase II (transcribing, phosphorylated, on a DNA-RNA scaffold) (S. scrofa). Put plainly: cryo-EM structure.

“human U1 small nuclear ribonucleoprotein particle (from UniProt P08621;P09012;P09234) (complex)” showed a percent of Pol II particles with density for U1 snRNP of 17.5%.
